From PMC8079274, “Calmodulin influences MAPK signaling by binding KSR1” (The Journal of Biological Chemistry, 2021)

Legend:
pure calmodulin = target: T1, pure calmodulin (UniProt P0DP23 1-149); assay: pull-down; 2 μg pure calmodulin in lysis buffer B with 1 mM Ca^2+ with GST-KSR1 constructs on glutathione-Sepharose beads, 3 h at 4 °C; blot with anti-calmodulin; details: both partners purified
T1 construct: Pure calmodulin from Ocean Biologics; also called purified calmodulin; CaM; source: bought: Ocean Biologics

[1] = target: T2, calmodulin-Sepharose (calmodulin coupled to Sepharose beads) (UniProt P0DP23 1-149); assay: pull-down; 500 ng purified His-KSR1 with 30 μl calmodulin-Sepharose or GST-Sepharose, lysis buffer B (50 mM Tris-HCl pH 7.4, 150 mM NaCl, 1% Triton-X 100) with 1 mM CaCl2, 3 h at 4 °C; blot with anti-KSR1; details: both partners purified
T2 construct: Calmodulin coupled to Sepharose; also called CaM; source: bought: GE Healthcare (17-0529-01), calmodulin-Sepharose beads

| binding result (pure calmodulin) | binding result [1] | Binder |
| --- | --- | --- |
| binds | – | GST-KSR1-M (amino acid residues 319–433) (domain or fragment, Vector pGEX2T-TEV; also called M-fragment; pGEX2T-TEV-KSR1-M; source: E. coli, isolated with glutathione-Sepharose beads) GSPQLVRRDIGLSVTHRFSTKSWLSQVCNVCQKSMIFGVKCKHCRLKCHNKCTKEAPACRITFLPLARLRRTESVPSDINNPVDRAAEPHFGTLPKALTKKEHPPAMNLDSSSNP |
| – | binds | His-tagged full-length KSR1 (kinase suppressor of Ras1) (natural protein, Kinase suppressor of Ras1 (KSR1), full length; Plasmid pTrace-His-KSR1 was a gift (Piero Crespo); the construct is not described further; also called His-KSR1; purified KSR1; source: 90% pure) MDRAALRAAAMGEKKEGGGGGAAADGGAGAAVSRALQQCGQLQKLIDISIGSLRGLRTKCSVSNDLTQQEIRTLEAKLVKYICKQQQSKLSVTPSDRTAELNSYPRFSDWLYIFNVRPEVVQEIPQELTLDALLEMDEAKAKEMLRRWGASTEECSRLQQALTCLRKVTGLGGEHKMDSGWSSTDARDSSLGPPMDMLSSLGRAGASTQGPRSISVSALPASDSPVPGLSEGLSDSCIPLHTSGRLTPRALHSFITPPTTPQLRRHAKLKPPRTPPPPSRKVFQLLPSFPTLTRSKSHESQLGNRIDDVTPMKFELPHGSPQLVRRDIGLSVTHRFSTKSWLSQVCNVCQKSMIFGVKCKHCRLKCHNKCTKEAPACRITFLPLARLRRTESVPSDINNPVDRAAEPHFGTLPKALTKKEHPPAMNLDSSSNPSSTTSSTPSSPAPFLTSSNPSSATTPPNPSPGQRDSRFSFPDISACSQAAPLSSTADSTRLDDQPKTDVLGVHEAEAEEPEAGKSEAEDDEEDEVDDLPSSRRPWRGPISRKASQTSVYLQEWDIPFEQVELGEPIGQGRWGRVHRGRWHGEVAIRLLEMDGHNQDHLKLFKKEVMNYRQTRHENVVLFMGACMNPPHLAIITSFCKGRTLHSFVRDPKTSLDINKTRQIAQEIIKGMGYLHAKGIVHKDLKSKNVFYDNGKVVITDFGLFGISGVVREERRENQLKLSHDWLCYLAPEIVREMIPGRDEDQLPFSKAADVYAFGTVWYELQARDWPFKHQPAEALIWQIGSGEGVRRVLASVSLGKEVGEILSACWAFDLQERPSFSLLMDMLERLPKLNRRLSHPGHFWKSADINSSKVMPRFERFGLGTLESGNPKM |
